Numbering of substitutions follows the chain as printed. Names may count otherwise.

For orientation: stoichiometry N means the number of molecules, sites or subunits per partner or assembly.

One data set addresses T1, Ku-Mtb L13A/V14A (Mycobacterium tuberculosis, UniProt P9WKD9 1-273, L13A;V14A).
T1 sequence: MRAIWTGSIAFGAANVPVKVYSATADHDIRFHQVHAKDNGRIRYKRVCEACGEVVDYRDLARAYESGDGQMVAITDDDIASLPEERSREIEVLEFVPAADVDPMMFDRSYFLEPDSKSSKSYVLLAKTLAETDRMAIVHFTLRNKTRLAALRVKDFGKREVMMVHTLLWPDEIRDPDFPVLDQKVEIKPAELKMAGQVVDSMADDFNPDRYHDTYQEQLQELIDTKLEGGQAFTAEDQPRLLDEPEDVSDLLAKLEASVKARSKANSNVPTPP
Description: cryo-EM. The following applies: protein: recombinant; tags: His (Ni-NTA purified); chain copies: 2; label: 5' FAM on strand 1; 3' overhang 20 nt on strand 1.

Data set [1] deals with the molecule itself. Description: cryo-EM structure; apo Ku-Mtb without DNA; 20 mM Tris-HCl pH 8, 75 mM NaCl, 5 mM MgCl2, 2 mM DTT, 8 mM CHAPSO; C2 symmetry imposed; step: protomers to homodimer.
Data set [2] deals with the molecule itself. Description: cryo-EM micrographs and 2D class averages.

B1: FAM-DNA, 32 bp with 3' 20dT overhang (mixed)
DNA 1: GGAATGTAACCATCGTTGGTCGGCAGCAGGGCTTTTTTTTTTTTTTTTTTTT
DNA 2: GCCCTGCTGCCGACCAACGATGGTTACATTCC
As to B1, in the data set with Ku-Mtb L13A/V14A, the binding result is “binds”.

B2: Ku protein from Mycobacterium tuberculosis, wild type (natural protein)
chain: T1 sequence with A13L, A14V
notes: also called Ku-Mtb; KuMtb
In the case of B2, the “stoichiometry N” value in data set [1] came out at 2.

B3: Ku-Mtb S201A/Q197A double mutant (natural protein)
chain: T1 sequence with A13L, A14V, Q197A, S201A
notes: source: over-expressed, purified
As to B3, the binding result in data set [2] is listed as “binds”.

The values are drawn from PMC12658125, “Oligomerisation of Ku from Mycobacterium tuberculosis promotes DNA synapsis” (Nature Communications, 2025).
